Test results as given in patent US20200276130.

Key:
[1] = molecular target: GST-PKM1 recombinant protein, P14618
[2] = molecular target: GST-PKM2 recombinant protein, P14618
Sequence of GST-PKM2 recombinant protein, P14618 (P14618 whole entry, looked up): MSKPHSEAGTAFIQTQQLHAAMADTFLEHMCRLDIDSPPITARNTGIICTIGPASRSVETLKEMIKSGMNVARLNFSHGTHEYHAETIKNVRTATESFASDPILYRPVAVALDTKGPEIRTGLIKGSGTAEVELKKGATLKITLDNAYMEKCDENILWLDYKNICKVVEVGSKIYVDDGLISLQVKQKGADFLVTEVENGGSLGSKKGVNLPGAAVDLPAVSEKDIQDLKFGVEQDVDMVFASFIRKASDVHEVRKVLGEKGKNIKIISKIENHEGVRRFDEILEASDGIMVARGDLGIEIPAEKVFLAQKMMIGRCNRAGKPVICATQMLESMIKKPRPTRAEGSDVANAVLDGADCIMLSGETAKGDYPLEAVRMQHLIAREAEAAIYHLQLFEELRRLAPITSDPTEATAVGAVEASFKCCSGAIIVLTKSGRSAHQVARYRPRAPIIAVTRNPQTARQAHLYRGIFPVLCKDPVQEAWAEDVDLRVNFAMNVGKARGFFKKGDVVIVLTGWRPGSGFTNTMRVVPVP

Sequence of GST-PKM1 recombinant protein, P14618 (P14618 other isoform, or with tags, fused parts or gaps): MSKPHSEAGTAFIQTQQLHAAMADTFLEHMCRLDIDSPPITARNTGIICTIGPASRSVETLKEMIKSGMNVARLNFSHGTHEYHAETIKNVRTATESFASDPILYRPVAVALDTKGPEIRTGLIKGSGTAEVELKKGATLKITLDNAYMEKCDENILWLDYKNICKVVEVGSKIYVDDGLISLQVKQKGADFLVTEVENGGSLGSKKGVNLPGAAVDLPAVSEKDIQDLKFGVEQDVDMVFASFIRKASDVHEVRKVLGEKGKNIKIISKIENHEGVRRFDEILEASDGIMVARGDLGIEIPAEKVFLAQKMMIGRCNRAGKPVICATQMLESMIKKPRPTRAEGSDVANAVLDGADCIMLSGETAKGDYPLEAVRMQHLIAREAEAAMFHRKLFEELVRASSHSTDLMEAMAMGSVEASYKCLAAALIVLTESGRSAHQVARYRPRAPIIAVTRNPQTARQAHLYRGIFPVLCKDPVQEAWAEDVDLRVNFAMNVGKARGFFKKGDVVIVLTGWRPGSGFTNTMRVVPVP

B1: recombinant CARM1 used in the in vitro methylation assays (protein)
chain: MAAAAAAVGPGAGGAGSAVPGGAGPCATVSVFPGARLLTIGDANGEIQRHAEQQALRLEVRAGPDSAGIALYSHEDVCVFKCSVSRETECSRVGKQSFIITLGCNSVLIQFATPNDFCSFYNILKTCRGHTLERSVFSERTEESSAVQYFQFYGYLSQQQNMMQDYVRTGTYQRAILQNHTDFKDKIVLDVGCGSGILSFFAAQAGARKIYAVEASTMAQHAEVLVKSNNLTDRIVVIPGKVEEVSLPEQVDIIISEPMGYMLFNERMLESYLHAKKYLKPSGNMFPTIGDVHLAPFTDEQLYMEQFTKANFWYQPSFHGVDLSALRGAAVDEYFRQPVVDTFDIRILMAKSVKYTVNFLEAKEGDLHRIEIPFKFHMLHSGLVHGLAFWFDVAFIGSIMTVWLSTAPTEPLTHWYQVRCLFQSPLFAKAGDTLSGTCLLIANKRQSYDISIVAQVDQTGSKSSNLLDLKNPFFRYTGTTPSPPPGSHYTSPSENMWNTGSTYNLSSGMAVAGMPTAYDLSSVIASGSSVGHNNLIPLANTGIVNHTHSRMGSIMSTGIVQGSSGAQGSGGGSTSAHYAVNSQFTMGGPAISMASPMSIPTNTMHYGS
B1 was tested, and the “in vitro methylation assay (3H-SAM, autoradiography)” value [1] was “only PKM2, but not PKM1, can be methylated by CARM1 in in vitro methylation assays” and the “in vitro methylation assay (3H-SAM, autoradiography)” value [2] was “only PKM2, but not PKM1, can be methylated by CARM1 in in vitro methylation assays”.
